Columns and labels:
[1] = biological target: PD-L1 on CHO-PD-L1 cells (human) (UniProt Q9NZQ7); assay: flow cytometry cell binding; CHO-PD-L1 cells
CD47 on Jurkat cells = CD47 on Jurkat cells (UniProt Q08722); assay: flow cytometry cell binding; Jurkat cells

PD-L1 on CHO-PD-L1 cells (human), sequence (Q9NZQ7 19-290): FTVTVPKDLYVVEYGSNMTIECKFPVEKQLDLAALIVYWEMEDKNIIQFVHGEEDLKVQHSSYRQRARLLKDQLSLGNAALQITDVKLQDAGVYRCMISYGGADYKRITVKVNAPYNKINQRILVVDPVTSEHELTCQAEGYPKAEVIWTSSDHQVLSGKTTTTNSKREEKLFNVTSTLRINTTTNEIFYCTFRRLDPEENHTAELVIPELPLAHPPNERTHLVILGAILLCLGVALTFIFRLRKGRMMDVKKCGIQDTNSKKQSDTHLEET

EC50 [1]	EC50 (CD47 on Jurkat cells)	Substance
0.027 nM	–	Atezolizumab
0.0471 nM	0.913 nM	IMM2505

From US20230083670A1
